Experimental data reported in a protein production outcome set (Wang et al. 2014).

Experiment: label from the status in PepcDB records

MDKIHAMQLFIRVADLESFSRAAETLALPKGSVSRQIQALESHLGVRLLHRTTRRVQLTQDGMVYYERAKDLLSNLDELDGMFQHDPASISGRLRVDMPVGFAKKMVIPHLPTFLQQYPGIELELSSSDRQVDVIREGFDCVVRVGALKDSGLIARPLGKLTQINCASPDYLARFGYPQSLEDLADHALIHYASTLGVRPPGFEVMIDGAVRWVKTGGILTVNSTETYQAACIAGLGIIQVPRTGVREALRAGDLIEILPQYRAEPLPVSLIYPHRRNLSRRVNLFMEWLGGLMKAYVD
protein production: failed

MWTRLLPFLAWLPGLHRGMLGREAWVGLNGAILALPQSMAYALIAGLPAEYGLYAAMLPVAIACLWGSSRYLVSGPTAAISVLLFSSVAPLAPLGSPQYVQAVLLLTFLAGAFQWLLGVLRVGSLVNFVSHSVMLGFTLGAALLIVLGQLPYLLGLAASGEGAAPGNGWRLLARFAEFDGPSLLVGGFSFALSLLVRRLRPRWPALLLGLLGGATLVWALPGTFASVAHVQALSSALPGWSPLVFDSRSILDLLPAAVACGMLGLVTSLSIARALAARQGDAFDANQEVRAQGLSNLLGPWLSASLSAGSFTRSGLNLEAGARSPLAGAFSALWVALLAVLGARLIEHVPLPAMAAGILLIAWGLIDRPALRALYRSGRAECLVAGLTALATLLLPLQNAIYAGVLASLVFYLRRTSTPRVLRQRNDEEEVLRIEGSIFFGACDYLQRLMRQCDRPRLVLDARQVNFIDFAGAVLLQQEARRLHAEGRRLVLRHARPQVREALGRQADEGCRLHYEG
protein production: failed

MIYQPDENRYHTMEYRRCGRSGVKLPAISLGLWHNFGDTTRVENSRALLQRAFDLGITHFDLANNYGPPPGSAECNFGRILQEDFLPWRDELIISTKAGYTMWDGPYGDWGSRKYLIASLDQSLKRMGLEYVDIFYHHRPDPETPLKETMKALDHLVRHGKALYVGISNYPADLARQAIDILEDLGTPCLIHQPKYSLFERWVEDGLLALLQEKGVGSIAFSPLAGGQLTDRYLNGIPEDSRAASGSRFLKPEQITADKLEKVRRLNELAARRGQKLSQMALAWVLRNDNVTSVLIGASKPSQIEDAVGMLANRRFSAAECAEIDAILEGRF
protein production: failed

MKFYTILSILFISFMLSACAVLQKSSPLQENKDFYILDTHTQKKISFEDMILELLKADVILLGEKHDEVKHKISQVMIFNALEGNLSSQNINFDVALEMLASTEQNHLDKAFKNKKTIKANELTNALNWDKVWKWKDYEQFVNVVFYSKSKILGANLSRSEITSIYNGAQPLKGYVSTTNEVKKQLFDIISLSHKLNPEENKELLDKLVEIQQFKDRRMADVLVHHVNKVLLLAGSYHTSKKIGIPLHIQDFKSSKKIVVVNLSYGEIDLKDSDYVLIYKGEELEHHHHHH
protein production: failed

SAAHQMDSITYSNNVTQQYIQPQSLQDISAVEDEIQNKIEAARQESKQLHAQINKAKHKIQDASLFQMANKVTSLTKNKINLKPNIVLKGHNNKISDFRWSRDSKRILSASQDGFMLIWDSASGLKQNAIPLDSQWVLSCAISPSSTLVASAGLNNNCTIYRVSKENRVAQNVASIFKGHTCYISDIEFTDNAHILTASGDMTCALWDIPKAKRVREYSDHLGDVLALAIPEEPNSENSSNTFASCGSDGYTYIWDSRSPSAVQSFYVNDSDINALRFFKDGMSIVAGSDNGAINMYDLRSDCSIATFSLFRGYEERTPTPTYMAANMEYNTAQSPQTLKSTSSSYLDNQGVVSLDFSASGRLMYSCYTDIGCVVWDVLKGEIVGKLEGHGGRVTGVRSSPDGLAVCTGSWDSTMKIWSPGYQ
protein production: failed

SEKPAGSLQEQALKRKERLKALRDRQLQGHAPADGEPERKRALEDTETEDRHRELKLRNYTPEDVELKERQVPKAKPASVDDKVKDQLEAANPEPVIEEVDLANLAPRKPDWDLKRDVAKKLEKLERRTQKAIAELIRERLKGSEEELAGAVGAVGVEEGDSD
protein production: failed

MKIKFKRLDYQEQCRDQILGVFKGIDLKEPENDAQRISNPVFEIGAIKDLLLENIENLRSKQKITQGSVGIDKSLNCDILMETGTGKTFCFLECVYALHKNHHLSKFIVLTPSNAIKLGVLKSVEITREFFKSEYSNTHLESYEDIERFILASNHKCCVLVMTFSAFNKEKNTINKSCLENTNLFNGATSYMQALVSMRPIVIMDEPHRFLGDKTKKYLEQLNALLTLRFGATFKDDYNNLIYTLDSKKAFDCALVKSISVASVGESNECFLELKGIEKKEAAINYTDLENKTQSVKVKEHDNLGVVTQISALEDYIVEKITKTEIRFLNGFNLLLDQKEPFSHLLEGEQEVMLKEAIKSHFEREEGLFKKGIKALCMVFISGVNSYLSENEKPAKLALLFEKLYQQKLEEVLKKPLDENYRAYLECTREDIKKVHGGYFAKSKKEGDETKTIELILKEKEKLLSFDSDLRFIFSQWALQEGWDNPNVMTICKLAPSHSNITKLQQIGRGLRLAVNDKGERITKEHADFDFVNELVVIVPQVEGDFVGAIQQEISEHSLIKQEFSAEELEKSGVVKKGRYGFLLETLEGLGFGEKTGDENFKLTLNQNEFLEKEPELEKLKDEKYLDFEKLKDFLKDRLIGNSRVRDKNERKSEKIKINKENFKKFETLWESLNHQARIAYAIDSESLIDEIVKNINSSFNVSSKIVSVTTHKKVETMGNNAKTEIFERENACVWSLHEFISALSNKVKLSFKSVAKVLENIDENKFNEIKKNEQEGLRRLEELFLEIIYQNIKDKISYQMRETTIKNRKNDAFYDEKGEIREFLDGSLGADKYEIKNSSVREKCLYENFMQVDSEIEKDTIEESNDTKIIVFGKLPRVKIPIGLNQTYSPDFGYVVENNDKKVLLVVETKGVDKKSELRPEEERKISTAKKFFEALKKQGVNIEYKTKMEKDQLSALINEVLNRKD
protein production: failed

SKELKVLVLCAGSGTSAQLANAINEGANLTEVRVIANSGAYGAHYDIMGVYDLIILAPQVRSYYREMKVDAERLGIQIVATRGMEYIHLTKSPSKALQFVLEHYQ
protein production: not failed

MKSLVKVSLAALALAFAVSAYAAEKELIVATDTAFVPFEFKQGDKYVGFDIDLWDAIAKKLDLKYTLKPMDFSGIIPALQTKNVDLALAGITITDERKKAVDFSDGYYNSGLLVMVKADNNDIKSEADLQGKVLAVKSGTGSVDYAKANIKTKDLRQFPNIDNAYLELGTGRADAVLHDTPNILYFIKTAGNGQFKAVGESIKAQQYGVAFPQGSDLREKVNAALKSLKEDGTYAEIYKKWFGVEPK
protein production: failed

MMEMITIKPGKITVQANPNMPKEVAELFRKQHYEIVGRHSGVKLCHWLKKSLTEGRFCYKQKFYGIHSHRCLQMTPVLAWCTHNCIFCWRPMENFLGTELPQPWDDPAFIVEESIKAQRKLLIGYKGNPKVDKKKFEEAWNPTHAAISLSGEPMLYPYMGDLVEEFHKRGFTTFIVTNGTIPERLEEMIKEDKLPTQLYVSITAPDIETYNSVNIPMIPDGWERILRFLELMRDLPTRTVVRLTLVKGENMHSPEKYAKLILKARPMFVEAKAYMFVGYSRNRLTINNMPSHQDIREFAEALVKHLPGYHIEDEYEPSRVVLIMRDDVDPQGTGVEGRFIKH
protein production: not failed

MGYKDEIGVIGIDDAPFNKFDKEALIVGTYMRGNKLVDEISFKKIEKDGFDSTEKILKIVKDKHFTKINAIFLDGVTFGGFNIADIVKIYNETKIPVIAVMEKEPDLLKMKSALKKYFFDFPEKIEMLESFPKPEPFENIFIQCIGISFEDACKLIKKTRLRSKIPECLRISHLVGRGFLNME
protein production: failed

MQCNVCEFGCEIDEYSRGRCRTYVCTGDTIIQDPDMGYLGAYPVSIETIPLLHYYPSGKFLQVFGTGCNFQCSGCVARLLASGKSLSSTTLTPSQVVEKALQQDCLGVVSTLNEPAANYYLFRDLAVQAKEKGLLVGCSTNCYFTEETLNKLGQLVDFMNVGIKGYSDRSYISCGVPSSAPVFRNISLLFDMGVHVETSVVYSRGNEADVIKVAEAVSDISPTIPVQVMRFIPFGDAPIELEPSVGEAESLCADLRKYVDYVYLFNSPGTELLNTYCPECGSLLAEREFYGPMGSRPVRPWITYSCDCGKTVPVKGTTAVERFNEEGFMGGYRISRAFGMVHGVLTCLGILDDSRLIDVWREISDSGTLMKVHHMIQQPYAYLDFVRLIAERANMPEKGEELISFIHTRLELVKSLAAENSGHKVYYCMGSPLFALNAGRMENNLVAFSGGLSINKQLQKEGKPGINVSPSFINENNPDTIFISGFLSRPLDEFYTLCRQYGIETDAVKQQRVYEVPPSWDFGNPRWILGLMYIADKLYPGNSGIDLEKEADEFYRQFYGMPYLEHHHHHH
protein production: not failed

MKYADISHFSHPQHNLKFDYTEKPFKCDGCNEVGIGSRYRCSGDNHGSCDFDLHAHCALPSASITHPFYKKCTFQFVARPPGNERRYCNACEKDVSGFLYHCKACGFDLHPCCAMLPMVLDDGETNLFLYRKVSSSCHRCGKKGRSWSYRSLFLILFLFFHYYDTKD
protein production: failed
